Assay [1] deals with intracellular antigens (TNT) in paraformaldehyde fixed Raji lymphoma cells. The assay is described as follows: fixed-cell radioimmunoassay on Raji cells, compared with the literature value for NHS76.
The target is the same in assay [2]. Briefly: fixed-cell radioimmunoassay: 125I-labeled fusion protein on paraformaldehyde-fixed Raji lymphoma cells, Scatchard analysis, Ka = -(slope/n) with n = 2.

These results are taken from patent US7696175.

With “B7.1/NHS76 fusion protein (from UniProt P33681 35-242)”, the affinity relative to parental NHS76 (fold of parental NHS76) in assay [1] turned out to be 0.14. The substance further gave a Ka in assay [2] of 2.15e+08 M⁻¹.
